Data reported in publication PMC5227068, “Pathogenicity Determinants of the Human Malaria Parasite Plasmodium falciparum Have Ancient Origins” (mSphere, 2017).

B1: P. reichenowi CDO61774.1 CIDRα1.4 (domain or fragment)
chain: TEIKVIVSGNEQGDISKKLEDFCSDENNENGKNYQKWECYYKSSQNNKCKMETKSGTSITEEKVTSFDAFFDLWVKNLLRDSIKWETELKDCINNSNVTDCNNDCNKNCVCFDKWVKQKEEVWKNMKTVLGNQKENLDNYYNKLNGLFKGFFFPVMFELNHDEAKWNKLMENLKKKIESSKENRGTVNSQDAIELLLEYLKEKSTICKDNNTN
B2: P. reichenowi CDO62090.1 CIDRα1.4 (domain or fragment)
chain: TKINVLYSGDKQGDITQKLQNFCSDENKENGTNYQKWECYYKDEKQNKCKMDKTSGKNMTEDKIMSFDEFFYSWVTNFLIDTINWENELKNCMNNTILTDCNDGCKINCVCFDKWVKQKENEWENVKKVFENKNGISDNYYNKLKYIFEGFFFQVLYKLNQDEAKWNQLKQKLKEIIVSSKANTGKEHSQDAIKPLLEYIKEKSTICKDNNTN
B3: recombinant human EPCR (receptor)
chain: SQDASDGLQRLHMLQISYFRDPYHVWYQGNASLGGHLTHVLEGPDTNTTIIQLQPLQEPESWARTQSGLQSYLLQFHGLVRLVHQERTLAFPLTIRCFLGCELPPEGSRAHVFFEVAVNGSSFVSFRPERALWQADTQVTSGVVTFTLQQLNAYNRTRYELREFLEDTCVQYVQKHISAENTKGSQTSRSYTS
B4: recombinant human EPCR (receptor)
chain: SQDASDGLQRLHMLQISYFRDPYHVWYQGNASLGGHLTHVLEGPDTNTTIIQLQPLQEPESWARTQSGLQSYLLQFHGLVRLVHQERTLAFPLTIRCFLGCELPPEGSRAHVFFEVAVNGSSFVSFRPERALWQADTQVTSGVVTFTLQQLNAYNRTRYELREFLEDTCVQYVQKHISAENTKGSQTSRSYTS
modifications: construct limits not given; taken as the soluble extracellular domain after the signal peptide, from the candidate's features

Assays:
Details in all cases: both partners purified
[1] = target: T1, recombinant human endothelial protein C receptor (human, UniProt Q9UNN8 18-238); experiment: BLI; Octet Qke; EPCR on the biosensor, CIDR domain in solution; protocol as reported previously (ref. 40); double-reference subtracted data fitted to a 1:1 binding model
T1 construct: endothelial protein C receptor, human, recombinant; also called EPCR; human EPCR
T1 sequence (looked up): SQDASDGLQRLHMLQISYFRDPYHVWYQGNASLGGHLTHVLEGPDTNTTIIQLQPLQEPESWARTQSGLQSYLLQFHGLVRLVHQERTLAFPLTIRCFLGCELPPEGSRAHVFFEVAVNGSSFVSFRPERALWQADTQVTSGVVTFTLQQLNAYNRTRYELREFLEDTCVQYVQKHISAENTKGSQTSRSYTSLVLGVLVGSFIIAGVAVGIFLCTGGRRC

[2] = target: P. reichenowi var71 CIDRα1.4 (Plasmodium reichenowi); experiment: BLI; Octet Qke; CIDR domains on recombinant human EPCR, protocol as reported previously (ref. 40); 1:1 fit
[3] = target: T2, P. reichenowi CDO61774.1 CIDRα1.4 (Plasmodium reichenowi, UniProt A0A060RM78 1-3575); experiment: as above
T2 construct: CIDRα1.4 domain of the P. reichenowi erythrocyte membrane protein 1 (PrEMP1) of entry CDO61774.1; Construct His6-MBP-TEV-CIDR-StrepII; also called P. reichenowi CD061774.1 CIDRα1.4; Pr CDO61774.1 CIDRα1.4; source: pSHuffle expression hosts (New England Biolabs), purified (two-step process); not shown: StrepII, C-terminal, kept

[4] = target: T3, P. reichenowi CDO62090.1 CIDRα1.4 (Plasmodium reichenowi, UniProt A0A060RMQ3 1-4072); experiment: as above
T3 construct: CIDRα1.4 domain of the P. reichenowi erythrocyte membrane protein 1 (PrEMP1) of entry CDO62090.1; Construct His6-MBP-TEV-CIDR-StrepII; also called Pr CDO62090.1 CIDRα1.4; source: pSHuffle expression hosts (New England Biolabs), purified (two-step process); not shown: StrepII, C-terminal, kept

Binder | koff [1] | kon [1] | also measured
B1 | 0.000293 s⁻¹ | 47300 M⁻¹ s⁻¹ | Kd [1]: 6.2 nM
B2 | 0.000443 s⁻¹ | 7350 M⁻¹ s⁻¹ | –
B3 | – | – | Kd [2]: 23 nM
B4 | – | – | Kd [3]: 6 nM; Kd [4]: 60 nM
